Data from US6441158, “Oligomers that bind to ku protein” (Medical College of Georgia Research Institute, Inc.).

B1: #52 (ssRNA)
RNA: GGGAGGAUAUUUUCUCAGACCGUAACUGAUCGUUCAAUGACUAUUCUUUACCUUGAGUAACCGAUUGCAGCAUCGUGAACUAGGAUC
B2: SC11 (ssRNA)
RNA: GGGAGGAUAUUUUCUCAGACCGUAACUUAGUUUCGAUCGAAGCUCAUUGGCCCAGCGUGGAUAACUUGCAGCAUCGUGAACUAGGAUC
B3: #85 (ssRNA)
RNA: GGGAGGAUAUUUUCUCAGACCGUAACAAGUAUCACGCACUUUCCCAUUCACUGUUAGAGACUGAUUGCAGCAUCGUGAACUAGGAUC
B4: SC2 (ssRNA)
RNA: GGGAGGAUAUUUUCUCAGACCGUAACACGCUCUACAACAGAUUGCGAAUUAACUUACGCUUCAUAUUGCAGCAUCGUGAACUAGGAUC
B5: #42 (ssRNA)
RNA: GGGAGGAUAUUUUCUCAGACCGUAACAUCCUGGUACUCACUUCGACAUCGUACGUUCAAUCAUACUUGCAGCAUCGUGAACUAGGAUC
B6: #1-2 (ssRNA)
RNA: GGGAGGAUAUUUUCUCAGACCGUAACAACACCUUGCUUUCCCAAUACCCUGAAAUACAGUCGGAUUUGCAGCAUCGUGAACUAGGAUC
B7: SC5 (ssRNA)
RNA: GGGAGGAUAUUUUCUCAGACCGUAACUUGAACAUGAUAGGCUUACCCAUAGACAGAUUGACCCUUUUGCAGCAUCGUGAACUAGGAUC
B8: SC8 (ssRNA)
RNA: GGGAGGAUAUUUUCUCAGACCGUAAGUCCUUCACUAAUGCUUACCAGACACACUAAGAACGUCACUUGCAGCAUCGUGAACUAGGAUC
B9: SC1 (ssRNA)
RNA: GGGAGGAUAUUUUCUCAGACCGUAAUUGUUCAACCUUGUCUAACAUGAUACCGAUACGGACUACAUUGCAGCAUCGUGAACUAGGAUC
B10: SC3 (ssRNA)
RNA: GGGAGGAUAUUUUCUCAGACCGUAACAUUACCACAGUUCUAGCAUCCCGCAAUGGUAAGUCCGCAUUGCAGCAUCGUGAACUAGGAUC
B11: SC13 (ssRNA)
RNA: GGGAGGAUAUUUUCUCAGACCGUAAACCUUUUUAGACGAACCUCAAAGUACAUUUAGUUGAAAACUUGCAGCAUCGUGAACUAGGAUC
B12: SC6 (ssRNA)
RNA: GGGAGGAUAUUUUCUCAGACCGUAAGACUCACGAUGGACCAUACGCCUUCCCACUGGUCUUGUUAUUGCAGCAUCGUGAACUAGGAUC
B13: #84 (ssRNA)
RNA: GGGAGGAUAUUUUCUCAGACCGUAAAUCCGCGUACCGGGCUCAAAUGUCACUAUAGUAGAAAGCAUUGCAGCAUCGUGAACUAGGAUC
B14: #7-3 (ssRNA)
RNA: GGGAGGAUAUUUUCUCAGACCGUAAAGGUCGGCAUACAGAGUUCCGAAUGCGCGUAACUUCGACUUUGCAGCAUCGUGAACUAGGAUC
B15: SC12 (ssRNA)
RNA: GGGAGGAUAUUUUCUCAGACCGUAACUCGCAACAUGACUUCGAAAGUUUAAUCGUUCUUGUCAAUUGCAGCAUCGUGAACUAGGAUC
B16: #2 (ssRNA)
RNA: GGGAGGAUAUUUUCUCAGACCGUAAGCCUAUGCACGGAGCUUUCCCAGCUACAGAUGAAACCAGCUUGCAGCAUCGUGAACUAGGAUC
B17: 21 bp double-stranded DNA (dsDNA)
DNA 1: CTCAGGCGTTGACGACAACCC
DNA 2: GGGTTGTCGTCAACGCCTGAG
B18: #1-17 (ssRNA)
RNA: GGGAGGAUAUUUUCUCAGACCGUAAUCCUUAUUUUAUGGCUUUCCCACGCACACAAGCGUCUGCGUUGCAGCAUCGUGAACUAGGAUC
B19: SC4 (ssRNA)
RNA: GGGAGGAUAUUUUCUCAGACCGUAACCUAGUCUAAUCGAGGCUUUCCCAGUGACAAUGACCCACUUGCAGCAUCGUGAACUAGGAUC
B20: SC9 (ssRNA)
RNA: GGGAGGAUAUUUUCUCAGACCGUAAUGCCUUUAGCUGCGACAAUGAACAGCAUGACCUCACUACUUGCAGCAUCGUGAACUAGGAUC

Assays:
[1] = target: T1, Ku protein (Ku70/Ku80 heterodimer) (Homo sapiens, UniProt P12956;P13010 P12956:2-609,P13010:2-732); assay: EMSA; conditions: tags: none, purified from HeLa cell nuclear extracts
T1 sequence (P12956 2-609, chain 1 of 2): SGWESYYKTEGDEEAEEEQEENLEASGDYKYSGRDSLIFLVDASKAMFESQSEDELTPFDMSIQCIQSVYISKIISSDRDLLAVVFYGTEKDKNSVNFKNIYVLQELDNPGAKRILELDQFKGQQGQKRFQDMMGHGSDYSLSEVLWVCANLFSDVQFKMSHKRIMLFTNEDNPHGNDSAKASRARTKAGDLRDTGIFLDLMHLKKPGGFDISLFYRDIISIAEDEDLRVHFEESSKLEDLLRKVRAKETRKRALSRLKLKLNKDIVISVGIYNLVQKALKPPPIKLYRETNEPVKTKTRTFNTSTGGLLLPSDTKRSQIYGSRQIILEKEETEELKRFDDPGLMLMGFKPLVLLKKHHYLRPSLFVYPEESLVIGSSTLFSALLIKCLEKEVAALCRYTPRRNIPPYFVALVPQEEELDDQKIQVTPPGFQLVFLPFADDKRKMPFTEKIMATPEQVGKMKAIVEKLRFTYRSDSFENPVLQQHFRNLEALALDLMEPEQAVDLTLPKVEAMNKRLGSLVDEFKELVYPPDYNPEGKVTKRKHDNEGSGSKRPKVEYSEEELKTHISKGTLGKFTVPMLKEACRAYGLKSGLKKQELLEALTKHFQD
T1 sequence (P13010 2-732, chain 2 of 2): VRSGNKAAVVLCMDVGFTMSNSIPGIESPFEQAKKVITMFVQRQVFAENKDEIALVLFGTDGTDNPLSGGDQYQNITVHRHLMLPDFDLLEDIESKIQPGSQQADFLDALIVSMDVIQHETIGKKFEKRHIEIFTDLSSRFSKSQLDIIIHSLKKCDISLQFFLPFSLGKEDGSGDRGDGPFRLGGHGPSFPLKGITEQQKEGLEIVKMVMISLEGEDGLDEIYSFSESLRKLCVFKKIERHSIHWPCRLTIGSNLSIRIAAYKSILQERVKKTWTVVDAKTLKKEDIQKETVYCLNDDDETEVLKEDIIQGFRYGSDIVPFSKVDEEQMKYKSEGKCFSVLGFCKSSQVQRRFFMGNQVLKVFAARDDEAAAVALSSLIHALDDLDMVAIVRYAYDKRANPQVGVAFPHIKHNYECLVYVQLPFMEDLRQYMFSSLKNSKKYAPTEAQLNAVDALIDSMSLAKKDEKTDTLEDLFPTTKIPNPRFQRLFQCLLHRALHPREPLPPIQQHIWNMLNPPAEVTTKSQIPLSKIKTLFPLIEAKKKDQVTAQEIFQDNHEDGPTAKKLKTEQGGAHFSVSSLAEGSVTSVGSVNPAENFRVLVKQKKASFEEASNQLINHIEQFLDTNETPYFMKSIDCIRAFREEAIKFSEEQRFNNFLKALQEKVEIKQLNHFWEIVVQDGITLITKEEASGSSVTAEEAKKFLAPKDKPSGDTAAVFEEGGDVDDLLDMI

[2] = target: DNA-PK (Ku protein + DNA-PKcs) (Homo sapiens, UniProt P12956;P13010;P78527 P12956:2-609,P13010:2-732,P78527:1-4128); assay: inhibition; DNA-PK kinase inhibition class A at 16-32 nM RNA; conditions: tags: none, both purified from HeLa cell nuclear extracts
[3] = target: T1, Ku protein (Ku70/Ku80 heterodimer); assay: EMSA; printed as SCI; conditions: tags: none, purified from HeLa cell nuclear extracts
[4] = target: T1, Ku protein (Ku70/Ku80 heterodimer); assay: EMSA; 5 mM MgCl2; conditions: tags: none, purified from HeLa cell nuclear extracts
[5] = target: T1, Ku protein (Ku70/Ku80 heterodimer); assay: EMSA; binding comparable to round 6 RNA (about 0.3 nM); conditions: tags: none, purified from HeLa cell nuclear extracts; label: 5'-32P
Source text: Binding curves were obtained with EMSA followed by a nonlinear least squares fit of the data. […] A twenty-one base pair double-stranded DNA was end-labeled with T4 polynucleotide kinase.

Binder	Kd [1]	activity [2]	also measured
B1	3.2 nM		
B2	> 10 nM		
B3	0.7 nM		
B4	0.8 nM	≥ 85 % inhibition	
B5	4.5 nM		
B6	1.5 nM	≥ 85 % inhibition	
B7	2 nM	≥ 85 % inhibition	
B8	0.6 nM	≥ 85 % inhibition	
B9			Kd [3]: 1.2 nM
B10	0.8 nM		
B11	0.8 nM		
B12	2 nM		
B13	1.8 nM		
B14	1.8 nM	≥ 85 % inhibition	
B15	0.5 nM		
B16		≥ 85 % inhibition	Kd [4]: 0.3 nM
B17			binding result [5]: binds
B18	3.2 nM		
B19	1.7 nM		
B20	0.6 nM		
